These results are taken from patent publication US20260209293A1 (Novo Nordisk, published 2026).

Test [1] addresses T1, human amylin-3(a) receptor (human, UniProt P30988 25-474; O60896 24-148).
T1 sequence (looked up) 1: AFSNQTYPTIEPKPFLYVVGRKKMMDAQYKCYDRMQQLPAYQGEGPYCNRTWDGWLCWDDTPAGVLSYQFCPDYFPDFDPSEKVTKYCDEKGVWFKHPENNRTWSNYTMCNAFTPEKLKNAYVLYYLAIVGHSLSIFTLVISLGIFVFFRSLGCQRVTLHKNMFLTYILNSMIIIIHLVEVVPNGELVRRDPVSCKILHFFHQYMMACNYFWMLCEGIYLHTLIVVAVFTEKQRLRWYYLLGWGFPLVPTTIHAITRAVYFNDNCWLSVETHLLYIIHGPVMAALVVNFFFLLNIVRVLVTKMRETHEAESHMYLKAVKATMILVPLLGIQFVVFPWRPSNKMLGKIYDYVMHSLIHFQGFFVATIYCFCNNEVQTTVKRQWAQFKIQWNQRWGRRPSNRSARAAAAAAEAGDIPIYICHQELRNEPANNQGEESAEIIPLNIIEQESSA
T1 sequence (looked up) 2: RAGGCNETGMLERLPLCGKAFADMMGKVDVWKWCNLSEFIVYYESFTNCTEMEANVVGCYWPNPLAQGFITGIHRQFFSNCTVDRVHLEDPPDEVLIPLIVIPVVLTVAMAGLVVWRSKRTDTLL
Briefly: cell-based or functional assay.

Test [2] concerns the target T2, human calcitonin receptor (a) (human, UniProt P30988 25-474).
T2 sequence (looked up): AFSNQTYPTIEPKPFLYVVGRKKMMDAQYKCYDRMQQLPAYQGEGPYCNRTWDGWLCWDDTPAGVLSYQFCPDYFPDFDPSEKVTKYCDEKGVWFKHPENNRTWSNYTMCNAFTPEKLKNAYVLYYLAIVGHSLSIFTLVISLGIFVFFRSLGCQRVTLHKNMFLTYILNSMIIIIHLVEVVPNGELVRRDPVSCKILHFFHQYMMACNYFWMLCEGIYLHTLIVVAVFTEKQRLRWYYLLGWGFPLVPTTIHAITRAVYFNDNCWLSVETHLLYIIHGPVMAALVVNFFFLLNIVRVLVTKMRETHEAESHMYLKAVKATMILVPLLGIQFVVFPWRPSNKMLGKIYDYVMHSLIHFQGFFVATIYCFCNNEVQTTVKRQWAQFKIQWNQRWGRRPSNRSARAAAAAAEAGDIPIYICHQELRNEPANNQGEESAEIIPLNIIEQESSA
Description: cell-based or functional assay.

*1 amine or outer side, *2 acyl side, *3 side chain or, on linkers, in order; H or OH if unused. The star is where a group is joined. C20 diacid = O=C(O)CCCCCCCCCCCCCCCCCCC(=O)*; C18 diacid = O=C(O)CCCCCCCCCCCCCCCCC(=O)*; γGlu = O=C(O)[C@H](CCC(=O)[*:2])N[*:1]

B1: N^1-[(4S)-4-carboxy-4-(19-carboxynonadecanoylamino)butanoyl]-[Ala1,Ser2,His3,Leu4,Ser5,Ala7,Gln8,Ala10,Glu14,His17,Pro25,Pro28,Pro29,Asp31,Glu35,Pro37],des-(19- … (peptide)
peptide: {C20 diacid-γGlu}-ASHLSTAQTARLAEFLHHFGPILPPTDVGSETP-NH2
SMILES: CC[C@H](C)[C@H](NC(=O)[C@@H]1CCCN1C(=O)CNC(=O)[C@H](Cc1ccccc1)NC(=O)[C@H](Cc1c[nH]cn1)NC(=O)[C@H](Cc1c[nH]cn1)NC(=O)[C@H](CC(C)C)NC(=O)[C@H](Cc1ccccc1)NC(=O)[C@H](CCC(=O)O)NC(=O)[C@H](C)NC(=O)[C@H](CC(C)C)NC(=O)[C@H](CCCNC(=N)N)NC(=O)[C@H](C)NC(=O)[C@@H](NC(=O)[C@H](CCC(N)=O)NC(=O)[C@H](C)NC(=O)[C@@H](NC(=O)[C@H](CO)NC(=O)[C@H](CC(C)C)NC(=O)[C@H](Cc1c[nH]cn1)NC(=O)[C@H](CO)NC(=O)[C@H](C)NC(=O)CC[C@H](NC(=O)CCCCCCCCCCCCCCCCCCC(=O)O)C(=O)O)[C@@H](C)O)[C@@H](C)O)C(=O)N[C@@H](CC(C)C)C(=O)N1CCC[C@H]1C(=O)N1CCC[C@H]1C(=O)N[C@H](C(=O)N[C@@H](CC(=O)O)C(=O)N[C@H](C(=O)NCC(=O)N[C@@H](CO)C(=O)N[C@@H](CCC(=O)O)C(=O)N[C@H](C(=O)N1CCC[C@H]1C(N)=O)[C@@H](C)O)C(C)C)[C@@H](C)O
As for B1, the “hAmyR3 potency, EC50 (pM); CRE-luciferase reporter in BHK cells” value (shortened to “hAmyR3 potency, EC50 (pM)”) in test [1] turned out to be 1.09 pM. Moreover, the “hCalcR potency, EC50 (pM); CRE-luciferase reporter in BHK cells” value (from here on “hCalcR potency, EC50 (pM)”) in test [2] was 1.49 pM.

B2: N^1-[(4S)-4-carboxy-4-(17-carboxyheptadecanoylamino)butanoyl]-[Ala1,Ser2,His3,Leu4,Ser5,Leu7,Gln8,Glu14,His17,Asp21,Pro25,Pro28,Pro29,Asp31, Pro37]-human amylin (peptide)
peptide: {C18 diacid-γGlu}-ASHLSTLQTQRLAEFLHHSSDNFGPILPPTDVGSNTP-NH2
SMILES: CC[C@H](C)[C@H](NC(=O)[C@@H]1CCCN1C(=O)CNC(=O)[C@H](Cc1ccccc1)NC(=O)[C@H](CC(N)=O)NC(=O)[C@H](CC(=O)O)NC(=O)[C@H](CO)NC(=O)[C@H](CO)NC(=O)[C@H](Cc1c[nH]cn1)NC(=O)[C@H](Cc1c[nH]cn1)NC(=O)[C@H](CC(C)C)NC(=O)[C@H](Cc1ccccc1)NC(=O)[C@H](CCC(=O)O)NC(=O)[C@H](C)NC(=O)[C@H](CC(C)C)NC(=O)[C@H](CCCNC(=N)N)NC(=O)[C@H](CCC(N)=O)NC(=O)[C@@H](NC(=O)[C@H](CCC(N)=O)NC(=O)[C@H](CC(C)C)NC(=O)[C@@H](NC(=O)[C@H](CO)NC(=O)[C@H](CC(C)C)NC(=O)[C@H](Cc1c[nH]cn1)NC(=O)[C@H](CO)NC(=O)[C@H](C)NC(=O)CC[C@H](NC(=O)CCCCCCCCCCCCCCCCC(=O)O)C(=O)O)[C@@H](C)O)[C@@H](C)O)C(=O)N[C@@H](CC(C)C)C(=O)N1CCC[C@H]1C(=O)N1CCC[C@H]1C(=O)N[C@H](C(=O)N[C@@H](CC(=O)O)C(=O)N[C@H](C(=O)NCC(=O)N[C@@H](CO)C(=O)N[C@@H](CC(N)=O)C(=O)N[C@H](C(=O)N1CCC[C@H]1C(N)=O)[C@@H](C)O)C(C)C)[C@@H](C)O
As to B2, the “hAmyR3 potency, EC50 (pM)” value in test [1] came out at 1.91 pM. Besides, in test [2], the “hCalcR potency, EC50 (pM)” value was 2.06 pM.

B3: N^1-[(4S)-4-carboxy-4-(17-carboxyheptadecanoylamino)butanoyl]-[Ala1,Ser2,His3,Leu4,Ser5,Ala7,Gln8,Ala10,Glu14,His17,Asp21,Pro22,Pro27,Asp31, Pro34,Asp35]-human … (peptide)
peptide: {C18 diacid-γGlu}-ASHLSTAQTARLAEFLHHSSDPFGAIPSSTDVGPDTY-NH2
SMILES: CC[C@H](C)[C@H](NC(=O)[C@H](C)NC(=O)CNC(=O)[C@H](Cc1ccccc1)NC(=O)[C@@H]1CCCN1C(=O)[C@H](CC(=O)O)NC(=O)[C@H](CO)NC(=O)[C@H](CO)NC(=O)[C@H](Cc1c[nH]cn1)NC(=O)[C@H](Cc1c[nH]cn1)NC(=O)[C@H](CC(C)C)NC(=O)[C@H](Cc1ccccc1)NC(=O)[C@H](CCC(=O)O)NC(=O)[C@H](C)NC(=O)[C@H](CC(C)C)NC(=O)[C@H](CCCNC(=N)N)NC(=O)[C@H](C)NC(=O)[C@@H](NC(=O)[C@H](CCC(N)=O)NC(=O)[C@H](C)NC(=O)[C@@H](NC(=O)[C@H](CO)NC(=O)[C@H](CC(C)C)NC(=O)[C@H](Cc1c[nH]cn1)NC(=O)[C@H](CO)NC(=O)[C@H](C)NC(=O)CC[C@H](NC(=O)CCCCCCCCCCCCCCCCC(=O)O)C(=O)O)[C@@H](C)O)[C@@H](C)O)C(=O)N1CCC[C@H]1C(=O)N[C@@H](CO)C(=O)N[C@@H](CO)C(=O)N[C@H](C(=O)N[C@@H](CC(=O)O)C(=O)N[C@H](C(=O)NCC(=O)N1CCC[C@H]1C(=O)N[C@@H](CC(=O)O)C(=O)N[C@H](C(=O)N[C@@H](Cc1ccc(O)cc1)C(N)=O)[C@@H](C)O)C(C)C)[C@@H](C)O
For the molecule B3, the “hAmyR3 potency, EC50 (pM)” value in test [1] came out at 1.68 pM. Further, in test [2], the “hCalcR potency, EC50 (pM)” value is 2.16 pM.

B4: N^1-[(4S)-4-carboxy-4-(17-carboxyheptadecanoylamino)butanoyl]-[Ala1,Ser2,His3,Leu4, Ser5, Leu7,Gln8,Glu14,His17,Pro25, Pro28,Pro29,Asp31,Glu35,Pro37], … (peptide)
peptide: {C18 diacid-γGlu}-ASHLSTLQTQRLAEFLHHFGPILPPTDVGSETP-NH2
SMILES: CC[C@H](C)[C@H](NC(=O)[C@@H]1CCCN1C(=O)CNC(=O)[C@H](Cc1ccccc1)NC(=O)[C@H](Cc1c[nH]cn1)NC(=O)[C@H](Cc1c[nH]cn1)NC(=O)[C@H](CC(C)C)NC(=O)[C@H](Cc1ccccc1)NC(=O)[C@H](CCC(=O)O)NC(=O)[C@H](C)NC(=O)[C@H](CC(C)C)NC(=O)[C@H](CCCNC(=N)N)NC(=O)[C@H](CCC(N)=O)NC(=O)[C@@H](NC(=O)[C@H](CCC(N)=O)NC(=O)[C@H](CC(C)C)NC(=O)[C@@H](NC(=O)[C@H](CO)NC(=O)[C@H](CC(C)C)NC(=O)[C@H](Cc1c[nH]cn1)NC(=O)[C@H](CO)NC(=O)[C@H](C)NC(=O)CC[C@H](NC(=O)CCCCCCCCCCCCCCCCC(=O)O)C(=O)O)[C@@H](C)O)[C@@H](C)O)C(=O)N[C@@H](CC(C)C)C(=O)N1CCC[C@H]1C(=O)N1CCC[C@H]1C(=O)N[C@H](C(=O)N[C@@H](CC(=O)O)C(=O)N[C@H](C(=O)NCC(=O)N[C@@H](CO)C(=O)N[C@@H](CCC(=O)O)C(=O)N[C@H](C(=O)N1CCC[C@H]1C(N)=O)[C@@H](C)O)C(C)C)[C@@H](C)O
B4: the “hAmyR3 potency, EC50 (pM)” value in test [1] is 1.6 pM. Also, the “hCalcR potency, EC50 (pM)” value in test [2] is 2.26 pM.

B5: N^1-[(4S)-4-carboxy-4-(17-carboxyheptadecanoylamino)butanoyl]-[Ala1,Ser2,His3,Leu4,Ser5,Ala7,Gln8,Glu14,His17,Asp21,Pro22,Pro27,Asp31,Pro34,Asp35]-human amylin (peptide)
peptide: {C18 diacid-γGlu}-ASHLSTAQTQRLAEFLHHSSDPFGAIPSSTDVGPDTY-NH2
SMILES: CC[C@H](C)[C@H](NC(=O)[C@H](C)NC(=O)CNC(=O)[C@H](Cc1ccccc1)NC(=O)[C@@H]1CCCN1C(=O)[C@H](CC(=O)O)NC(=O)[C@H](CO)NC(=O)[C@H](CO)NC(=O)[C@H](Cc1c[nH]cn1)NC(=O)[C@H](Cc1c[nH]cn1)NC(=O)[C@H](CC(C)C)NC(=O)[C@H](Cc1ccccc1)NC(=O)[C@H](CCC(=O)O)NC(=O)[C@H](C)NC(=O)[C@H](CC(C)C)NC(=O)[C@H](CCCNC(=N)N)NC(=O)[C@H](CCC(N)=O)NC(=O)[C@@H](NC(=O)[C@H](CCC(N)=O)NC(=O)[C@H](C)NC(=O)[C@@H](NC(=O)[C@H](CO)NC(=O)[C@H](CC(C)C)NC(=O)[C@H](Cc1c[nH]cn1)NC(=O)[C@H](CO)NC(=O)[C@H](C)NC(=O)CC[C@H](NC(=O)CCCCCCCCCCCCCCCCC(=O)O)C(=O)O)[C@@H](C)O)[C@@H](C)O)C(=O)N1CCC[C@H]1C(=O)N[C@@H](CO)C(=O)N[C@@H](CO)C(=O)N[C@H](C(=O)N[C@@H](CC(=O)O)C(=O)N[C@H](C(=O)NCC(=O)N1CCC[C@H]1C(=O)N[C@@H](CC(=O)O)C(=O)N[C@H](C(=O)N[C@@H](Cc1ccc(O)cc1)C(N)=O)[C@@H](C)O)C(C)C)[C@@H](C)O
For the molecule B5, the “hAmyR3 potency, EC50 (pM)” value in test [1] turned out to be 2.96 pM. In addition, in test [2], the “hCalcR potency, EC50 (pM)” value was 3.22 pM.

B6: N^1-[(4S)-4-carboxy-4-(17-carboxyheptadecanoylamino)butanoyl]-[Ala1,Ser2,His3,Leu4,Ser5,Ala7,Gln8,Ala10,Glu14,His17,Asp21,Pro25,Pro28,Pro29,Asp31]-human amylin (peptide)
peptide: {C18 diacid-γGlu}-ASHLSTAQTARLAEFLHHSSDNFGPILPPTDVGSNTY-NH2
SMILES: CC[C@H](C)[C@H](NC(=O)[C@@H]1CCCN1C(=O)CNC(=O)[C@H](Cc1ccccc1)NC(=O)[C@H](CC(N)=O)NC(=O)[C@H](CC(=O)O)NC(=O)[C@H](CO)NC(=O)[C@H](CO)NC(=O)[C@H](Cc1c[nH]cn1)NC(=O)[C@H](Cc1c[nH]cn1)NC(=O)[C@H](CC(C)C)NC(=O)[C@H](Cc1ccccc1)NC(=O)[C@H](CCC(=O)O)NC(=O)[C@H](C)NC(=O)[C@H](CC(C)C)NC(=O)[C@H](CCCNC(=N)N)NC(=O)[C@H](C)NC(=O)[C@@H](NC(=O)[C@H](CCC(N)=O)NC(=O)[C@H](C)NC(=O)[C@@H](NC(=O)[C@H](CO)NC(=O)[C@H](CC(C)C)NC(=O)[C@H](Cc1c[nH]cn1)NC(=O)[C@H](CO)NC(=O)[C@H](C)NC(=O)CC[C@H](NC(=O)CCCCCCCCCCCCCCCCC(=O)O)C(=O)O)[C@@H](C)O)[C@@H](C)O)C(=O)N[C@@H](CC(C)C)C(=O)N1CCC[C@H]1C(=O)N1CCC[C@H]1C(=O)N[C@H](C(=O)N[C@@H](CC(=O)O)C(=O)N[C@H](C(=O)NCC(=O)N[C@@H](CO)C(=O)N[C@@H](CC(N)=O)C(=O)N[C@H](C(=O)N[C@@H](Cc1ccc(O)cc1)C(N)=O)[C@@H](C)O)C(C)C)[C@@H](C)O
Take B6: the “hAmyR3 potency, EC50 (pM)” value in test [1] is 1.97 pM. Further, in test [2], the “hCalcR potency, EC50 (pM)” value is 3.15 pM.
